Bounds are passed on as bounds.

A short description of this data set: soluble fraction after stress (log2 fold change); higher = more stays soluble; pooled small domains, quantitative proteomics. The following applies: stress: pH 4. An outline of the steps: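 With high-throughput quantitative proteomics, pooled custom libraries of small protein domains were measured after pH 4 stress. Each domain's soluble amount after the stress gives a fold change taken as aggregation propensity. Higher log2 values mean more of the domain stayed soluble.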
In the case of “HMVEVPEQLRDLLERSIEDLAELSVRSRNSLQKENIQTLGDLVQRTEEEMLGIENFGKKSLTEIAAFL”, the “soluble fraction (log2)” value is -0.92.

Consider “HMVEYFDDENLDAFIGRESDSYTEKEIEQFREILYTMNQKEVADWNRSLTIRGINIPNDLKDEMIMMI”, for which the “soluble fraction (log2)” value was -2.71.

In the case of “HMVEYIENINLSEKQKFIAHEILKEIRGRAIFLRDVGLDYLNLSRKAGTLSGGEAQRIRLATQIGSA”, the “soluble fraction (log2)” value was -0.347.

For the sequence “HMVFKSAQEGLDFYSKQLNDVDATLGRIRRGEESGNGLYGSNRVKNLEEQRKKLDSFVTAYRNAVNAT”, the “soluble fraction (log2)” value was determined as 0.177.

As for “HMVFTEEEMLEKIKEYLSTNSYINRRAMETLFNLRQSTALKWLGHFTEIGVLRKEGERNYPVYFLNN”, the “soluble fraction (log2)” value is -0.159.

On to “HMVGADTISDLISQRGRMIGDKPITNAVIKSGSEFSTINALSKAIASGDARTNDVEGMKPVFR”, for which the “soluble fraction (log2)” value was -0.0241.

With “HMVGKGASIILDRVNLPQYLEKFNEDGFDTIESLKNLNEIDLKEMGVKKGHIRVILNYLHEEY”, the “soluble fraction (log2)” value is -0.48.

With “HMVGLKWYDTGNKKPPIGTEYKNTELSEALKGHDRKEFTWKELDVLGVNITDKEQYIVVGENYYTQV”, the “soluble fraction (log2)” value amounted to 0.22.

With “HMVGPAHIGLAVAKDQLPHWERHLTANGVEIEGRMRWDHGGESIYFRDPDAHLLELVTPGIWAN”, the “soluble fraction (log2)” value is -0.1.

As to “HMVGVDMTVKEEVGKEGVTFTDLRPAGKVEIGNDIYDAVSNTGAFIQKGEKVKIIKYQAGQVYVEKLV”, the “soluble fraction (log2)” value was found to be 0.187.

As for “HMVIANADVRAKFSKGKDSFVKYYFKEKVLKDGFTEEVKNNIVQALFYLQIVTRIDGESGVLIIDY”, the “soluble fraction (log2)” value turned out to be 0.187.

For “HMVIDETVLIDLFERLAEDDRPQRVAFRYILALVLLRKRTLQLIGREDEDDGEIWLLRFKGTDGEPIRV”, the “soluble fraction (log2)” value is -2.56.

Take “HMVIGKHSGSHTLVNDLAKRGITLDKEESATLLEMVRKAAVGLHRSISSDELYGLYKDMKSGQDPFEDS”: the “soluble fraction (log2)” value worked out at 0.14.

As for “HMVINVKEILERIKLVKGFHTQIEIARFLGVSKGTISNWLARNSVDFPLVISKLDGVDLNWLFTGIGMPQ”, the “soluble fraction (log2)” value is -0.433.

Take “HMVISNDEFEDYLNRATEQLVSELSSGKNPRDAVHDLALTFADQHNKSYDAYQRMADSLEARMHTL”: the “soluble fraction (log2)” value is -0.156.

In the case of “HMVITEQTVTVKYLYEDDTEAAPEHSETHKTGETFEIESPKIDGFTPDYELITGTIANDDLVYIVRYKTTP”, the “soluble fraction (log2)” value is -0.526.

For the sequence “HMVITQVSTTQTDTTFQYHKVKPKETLFSISRLYEVSIDEIKTINPALNSRELMAGELLKLPIK”, the “soluble fraction (log2)” value was -0.337.

For the sequence “HMVKGIVPNLIGKTQDEAKQMAEEYGFSIGTVSEKASDKPKGTVIEQSPKAGAKASGVTSINIVVSDGS”, the “soluble fraction (log2)” value was -0.247.

“HMVKKYEKVKEYLLERILDGTYVPDLPIPPERELASLLDVNRMTVRRAVEELMYDGYLIRKKGSGTYLTR”: the “soluble fraction (log2)” value is -0.2.

For “HMVKLSVGDIVQFAGGPHYVSSSAAKPASSPTAGPAKVTMIYQGAKHPYHIVHTTSASTVWGWVDADKVVK”, the “soluble fraction (log2)” value is -0.208.

Regarding “HMVKNLRKLREELGLTQQRLAELTGISKSRIYSYESLDREPDIAGLITLADFFSVSIDYLVGK”, the “soluble fraction (log2)” value is -1.01.

In the case of “HMVKPKIILADIGMITETDVTLAKASQAVLIAFNVKPSKEAKKLAEDENIKISTYNIIYEVLDFVKKSMSG”, the “soluble fraction (log2)” value amounted to 0.0492.

On to “HMVLALRGIVQGGAEPLVILSDGRTSQSLAVGERFLAYEVVEIGRTGVRLRGPEGEIWLAMASF”, for which the “soluble fraction (log2)” value was -1.37.

On to “HMVLANLQAAEQGDLGIKEGEKLTILQTRPDGWWTARNANGETGLVPK”, for which the “soluble fraction (log2)” value came out at 0.0851.

With “HMVLFDLSEREKEVLKLLADGNSYKMIASRLEITYFTVNAHLKKIYEKLQVHSASEAVSVALRNSL”, the “soluble fraction (log2)” value is -1.36.

As for “HMVLIQNEDVKDISNYPLLSSVPVFDVFNNKMIIPTFNKDSFNPLIYNFNFNSKRRLIYRVDNTNYLIVIK”, the “soluble fraction (log2)” value is -0.241.

For “HMVLMPIDALRGSSSSSEMRIAAVKFSPSKGWYFSLQERSDEGSSYYEQKVASDGSVSERVKVR”, the “soluble fraction (log2)” value is -0.69.

Take “HMVLNVMIEEEVHREIIAAISKLPKERRRVVELSMAGFSQEEIAEKMAISVNTVKTIKLRAYRVLRERLKG”: the “soluble fraction (log2)” value was -0.208.

With “HMVLPELRLQGLPTAVLRLINRATALADDYRRLMEIAEDGRIDEWEAPEFERISENIQRVIAAGFEVL”, the “soluble fraction (log2)” value came to 0.1.

In the case of “HMVLQHHTATKALSYHTSASASAAVKGSFARGDSVQVVQGGSQTADGAKWHKVKVGSSYYYAAAEHLTP”, the “soluble fraction (log2)” value was -0.616.

With “HMVLTYYSVLGVKTDATTEEIKSTYKQLAIRNHPDRGGSEEVMKMINLAAEILSDPKSRKEYDLSLDA”, the “soluble fraction (log2)” value is -1.48.

Regarding “HMVLVLPGEMIHVQVIDEGKEMGQGVGYLDDGTMVVVENGLRHIGRAIDVQVTKVLQTNAGRMIFGQPIL”, the “soluble fraction (log2)” value was -0.952.

Consider “HMVMAELRISVDRLQIGNYIKLPLSWRDHPFLLSSFMIKKEEQIQLIRQLRLKHVFIIPEKSDAPPKPA”, for which the “soluble fraction (log2)” value is -1.81.

With “HMVMNYKKIGKKIADRRILLGITQEELAEKVDSSANYISNIETGIKSGSLIFYIKVANELKLSLDFLFSDE”, the “soluble fraction (log2)” value was -0.363.

Regarding “HMVMPTGRVRYYDAEKGFGFLSKDSGGDDVYVRSSALPAGVTSLKRGQKVEFGIIDGKRGEQALSVHLL”, the “soluble fraction (log2)” value worked out at 0.0712.

On to “HMVMTTVPEVLGMDIRTAASMLTGKNLKYDYDLVESDKPKDEVIEQDQAKGTEVPEGTVVKLKVSKGPA”, for which the “soluble fraction (log2)” value is 0.247.

Consider “HMVMTTVPEVLGMDISKAASLLTGKNLDYDYDLVESDKPKDQVIEQDVVKGTEVPEGTVIHLKVSKGPA”, for which the “soluble fraction (log2)” value was -0.0925.

Take “HMVMVVDVLKALSNNSSDKFFNTSISNAIKAQEDSQEDFVTLFGIEYEKLSPNNGLAVIFTSQ”: the “soluble fraction (log2)” value is -0.816.

In the case of “HMVNDDTIAATEAEILALLADKHRHHITELNSIRRPYEQIDAALSSLINEEKIFQEDGMLFV”, the “soluble fraction (log2)” value is -0.908.

In the case of “HMVNGEFIDRIKVILQENNATRKKDRLTKTRMYQLLQEEGYEGSYSAFTYQVRIIEEELGINNK”, the “soluble fraction (log2)” value was ≥ 0.43.

Consider “HMVNSIQIHKKLRLDKRAGSDNWYARLTLPNGKRLVKTTKTEDIETAKEVALRLYYEVDARIQNKLPAT”, for which the “soluble fraction (log2)” value was -0.158.

Take “HMVPADVQHLRDIVDTMTEKQQLVYKLHVLEGYTFTEIAKLMGTSIPNVKKHYDKAILFIKNNF”: the “soluble fraction (log2)” value was -0.165.

In the case of “HMVPEEEATKISVQNVGASDYNFTVKGVQANDPTLTLVRGKTYEFDVTSLGHPFWIKTQKVTGSSSQY”, the “soluble fraction (log2)” value was -0.139.

Consider “HMVPLSPRFFDIFRKRKDLTRQNVDVYFRDHPTEITAFERYIKGLVSQSYIPAERADALLLVASQYKAK”, for which the “soluble fraction (log2)” value came out at 0.0777.

For “HMVPSTAVIFTELVSMRSEPATKSPVTHQLTKGTAITINEEKDGWYQVTDQTGNSGWIVKWAVKPTYFTNP”, the “soluble fraction (log2)” value stood at 0.31.

Regarding “HMVPTYEAYVGKEGLVVGTLRPAGTAEFDGERLDVVSEGEYLEAGTRVQIVRTEGRRIVVRKIN”, the “soluble fraction (log2)” value is -0.233.

For “HMVPVVGTTIPHEFIGKFGSARVMLKPAVEGSGVIAGGSARAVLELAGYKDIKTKVLGTNNPRNVVYATMN”, the “soluble fraction (log2)” value stood at 0.196.

As for “HMVQDDDPNSVAKFIDQVIESNPEQVEQYRSGKEKVFNFFLGQTMRLSKGKANPDLVSELLKEKLS”, the “soluble fraction (log2)” value is -0.00692.

On to “HMVQIQDIAFSEFLNELEKGNILDVNIKGDLINGNMLDGKKFKTYAPYDPSLVEKLSKQNVTINVEPVN”, for which the “soluble fraction (log2)” value was -0.06.

As to “HMVQMKIRAYELEPNDFFIKQNMTYRVMRIQNGMIYAKHLLNSTPITFGAKSMEFVLWTGKYS”, the “soluble fraction (log2)” value was -1.05.

Consider “HMVQQTEEDVIRDMYVEGKIFTIGEEVTDTYTGVTGKIIRRGTNYVTFMSEDGETYKKWLYEIELA”, for which the “soluble fraction (log2)” value is -1.82.

Consider “HMVRDGDTFVVPKMDRFARNVEDTLHLVRELTERGVIFQMGHTVYDPHDPWSKLFLTFLAAIAEA”, for which the “soluble fraction (log2)” value came to 0.191.

Consider “HMVREVGYNAFLAMLDSGAVKEVARDESEGQITFLATDEKGKERVYKTGIWPDDTLTERLNTAGVEFA”, for which the “soluble fraction (log2)” value is -0.941.

Consider “HMVREVSYDQFLHFVEAKQVGMVYQDGESLMFTLKEDVEKEWGVTAYKTGLWPDANLTDRLLDAGVVFS”, for which the “soluble fraction (log2)” value is -1.65.

Consider “HMVRGNLAEELLKLREEEGISFQEAGARSGIARSTISQVVNQGLRLKPNQEESLWRVIEEVRGVKER”, for which the “soluble fraction (log2)” value is -0.0263.

In the case of “HMVRSEDLIGLQGRITLATDVETRGFVELSVKGSLLRRPALSLKGPLAKNTAVVVTASNDHTLEVEAL”, the “soluble fraction (log2)” value was -0.77.

Consider “HMVRSKLEIVPVPEDAVVKIAGLKRLTYQAYQNEDVPYMVYKNGYEAQSGTVFMDTDKTLTVTLEESP”, for which the “soluble fraction (log2)” value worked out at 0.151.

As to “HMVSAMLLHKKEILNLLAEEPEALHFASLLRAFGGRHIKNELKQIVDDLVRSGEILRLRGNRYTLPGADN”, the “soluble fraction (log2)” value was -0.149.

“HMVSATKAFVNGGNIVVSSPKATRVAVYNVAGQKVAEQAFAGKATIKASDFAKGIYVLKFNDNTVLKLT”: the “soluble fraction (log2)” value was -0.0226.

Turning to “HMVSDAELTSQATTAITAYPGTSVEVKEGQAHLSGTFATEADKQAAIDALKKIQDVKDVHDMATV”, the “soluble fraction (log2)” value came to 0.0294.

“HMVSDSAELSAFVADVIKENAQAVADYKGGKTNVFGWLMGQIIKKSGGKATPAAAAALLKAELEK”: the “soluble fraction (log2)” value is -0.14.

As to “HMVSKQVTVNGIQYYQYTVQKSEGFYAISTKFGVTQDDIILANPSTKEGLRVGQEILIPIKT”, the “soluble fraction (log2)” value is -0.0976.

Turning to “HMVSLLDWAYKQVRRMLFSGDLPQGQKIVVAQLANQLSISPTPVKEALNRLAVEGLLEAVPRRGFQVR”, the “soluble fraction (log2)” value was -1.02.

In the case of “HMVSQELIMLGNRIREYRKERGFSQEILAEKSGVSTNTISRIEGGQMAMSVGILQRIVKALGVDANVMLG”, the “soluble fraction (log2)” value was 0.12.

Consider “HMVSQKPKERELWFREQLELAGLRLDPHAISAINETLGNDTGRFPGIIDTLLSTYGAGKKLSYDDVVMFL”, for which the “soluble fraction (log2)” value was -1.8.

Take “HMVSRAFEEETVKRAESGNQEAALFALELAIREIEHSYEKSKIIDYFVSKVRLFLDNGVSLERALGIH”: the “soluble fraction (log2)” value is -0.0689.

On to “HMVSRKIENPYWANKEKQHIIAEFFYPDTNKRVTASIMNDGSNRDYEEILRGYSIEQIDANTNRRLEER”, for which the “soluble fraction (log2)” value is -0.811.

Regarding “HMVSSEGLASGIERMLVEFGLETDKGRRFAMWSLLYMLGSAPDLDVAFKDPRDREAARTFMDLLDQANA”, the “soluble fraction (log2)” value is -0.99.

With “HMVSSVAAISQMIDEKDRYTSEHSHRVAEYARLIGAHMGFAGEELDSLYRSALLHDIGKIAVPDAILNK”, the “soluble fraction (log2)” value is -0.417.
